pEC50: −log10 of the molar value.
Target: Envelope glycoprotein gp120Bal (HIV-1 isolate Bal)
Experiment: ELISA

Substance | pEC50
human germline HV control scFv (human germline b12 HV recombined with human mature b12 D(J)-segments and VL) | 7.62
macaque germline HV control scFv (macaque germline b12 HV recombined with human mature b12 D(J)-segments and VL) | 5.60

Reference: PMC3167946
